Target: T1, mouse DLK1 (moDLK1) (mouse, UniProt Q09163)
T1 chain: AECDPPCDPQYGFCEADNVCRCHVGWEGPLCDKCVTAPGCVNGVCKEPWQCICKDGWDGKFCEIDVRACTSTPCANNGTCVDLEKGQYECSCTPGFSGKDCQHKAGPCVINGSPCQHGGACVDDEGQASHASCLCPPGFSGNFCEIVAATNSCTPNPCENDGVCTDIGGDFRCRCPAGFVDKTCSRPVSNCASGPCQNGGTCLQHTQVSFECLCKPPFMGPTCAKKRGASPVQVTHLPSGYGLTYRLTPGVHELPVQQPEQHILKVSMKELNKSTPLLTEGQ

- binding result: no binding
B1: I18 (antibody, V domains shown)
VH: QVQLKESGPGLVAPSQSLSITCTVSGFSLILYGVHWVRQPPGKGLEWLGLIWAGGSTNYNSALMSRLSISKDNSKSQVFLKMNSLQTDDTAMYYCVRKHSNYLAMDYWGQGTSVTVSS
VL: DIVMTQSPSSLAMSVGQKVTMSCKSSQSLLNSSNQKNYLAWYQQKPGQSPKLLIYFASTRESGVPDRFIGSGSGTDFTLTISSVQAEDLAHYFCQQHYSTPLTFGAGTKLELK
